Experimental findings from PMC7772355, “Transmembrane Peptides as a New Strategy to Inhibit Neuraminidase-1 Activation” (Frontiers in Cell and Developmental Biology, 2020) are described below.

One may read the stoichiometry N as a count of units in the complex or per binding partner.

The chains are these.
B1: mutIntPepR (peptide)
peptide: GSMWHHHHHHGGELVDPVVVAIAVVTSSIIAFFSN
notes: holds the His6; not NEU1; human NEU1, TM2 segment with four point mutations; The gene construct had GB1 as leading fusion protein followed by a thrombin cleavage site; the printed peptide begins with GS, so GB1 was probably cleaved off (surmised); Unlabeled; embedded in DPC micelles; also called recombinant version of the four-point mutated peptide IntPep; source: continuous exchange cell-free …
B2: hNEU1-TMS2 (domain or fragment)
chain: not shown
modifications: 15N-labeled
notes: human NEU1, residues R305-R341, holding the transmembrane segment TM2; Embedded in DPC micelles for NMR; also called hNEU1/TMS2 fragment; hNEU1 TM2 segment; source: bacterial expression and purification as described in Maurice et al. (2016)

The target in the data set “hNEU1-TMS2” is B2. Description: NMR titration; heterodimerisation: 0.3 mM 15N-labeled hNEU1-TMS2 in DPC micelles (D/P 120) titrated with unlabeled recombinant peptide in micelles up to N/I of 1 (D/P near 100); pH 6.5, 20 mM sodium phosphate, 313 K, 1H/15N-TROSY. As to conditions: both partners purified.
Data set [1] deals with the molecule itself. The experiment in a line: NMR titration; homodimerisation: 0.4 mM 15N-labeled hNEU1-TMS2 in DPC micelles, D/P 50 titrated with DPC to 110 (further samples to D/P 200); pH 6.5, 20 mM sodium phosphate, 313 K, 800 MHz, 1H/15N-TROSY.

On to B1, for which the binding result in the data set with hNEU1-TMS2 is “binds”.

For the molecule B2, in data set [1], the “stoichiometry N” value turned out to be 2.
